In US20140356358A1 (Amgen, published 2014) one finds ELISA score data, which are given here for 31 molecules.

Assay [1] deals with T1, human neonatal Fc receptor (hFcRn) (human, UniProt P55899 24-290; P61769 21-119).
T1 construct: Biotinylated in the ELISA, Octet and yeast assays; also called human FcRn; huFcRn
Description: phage ELISA pH 6. As for the experimental part:
(§1) Approximately 100 μL of biotinylated human FcRn at 2 μg/mL was added to the wells of MAXISORP™ plates coated with 10 μg/mL streptavidin. After washing with PBS plus 0.05% Tween 20 (PBST) five times, phage from the overnight cultures in MES buffer at pH 6.0 or pH 7.4 were added to the plates and incubated at room temperature for 1 hr. A horseradish peroxidase (HRP)-conjugated anti-M13 antibody was used to detect the binding phage, and the plates were scored by a microtiter plate reader using a wavelength in the visible range.
(§2) Binding was assessed by a quantitative enzyme-linked immunoadsorbent assay (ELISA). The ELISA scores reflect binding affinity, with higher scores meaning higher affinity. Typically, scores higher than about 3˜5 indicate binding above background. For library L5, the insertions are between the N169 and G170 according to the numbering in FIG. 2. For libraries 6A and 6B, the insertions are between L143 and T144 according to the numbering in FIG. 2.
For orientation: ELISA stands for enzyme-linked immunosorbent assay.

Assay [2] concerns the target T1, human neonatal Fc receptor (hFcRn). Description: phage ELISA pH 7.4. The protocol: as §1, §2

Where a chain is given by its changes, count along the chain named. Numbers in names are those of the source.
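Note: higher score means stronger binding and above about 3 to 5 exceeds background.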

T1 sequence (P55899 24-290 limits assumed, chain 1 of 2): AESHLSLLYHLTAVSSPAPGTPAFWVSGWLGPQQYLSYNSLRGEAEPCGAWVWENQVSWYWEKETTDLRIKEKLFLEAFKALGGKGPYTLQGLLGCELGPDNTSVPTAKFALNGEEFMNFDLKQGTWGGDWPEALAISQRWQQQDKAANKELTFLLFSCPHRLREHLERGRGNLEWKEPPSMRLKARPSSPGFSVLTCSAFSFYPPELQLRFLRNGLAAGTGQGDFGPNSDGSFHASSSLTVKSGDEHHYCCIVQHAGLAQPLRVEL
T1 sequence (P61769 21-119 limits assumed, chain 2 of 2): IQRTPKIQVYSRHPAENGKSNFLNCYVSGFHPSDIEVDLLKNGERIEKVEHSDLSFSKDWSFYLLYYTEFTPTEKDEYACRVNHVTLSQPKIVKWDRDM

B1: L6A isolate with insertion SEQ ID NO: 400 (other)
chain: EPKSCDKTHTCPPCPAPELLGGPSVFLFPPKPKDTLMISRTPEVTCVVVDVSHEDPEVKFNWYVDGVEVHNAKTKPREEQYNSTYRVVSVLTVLHQDWLNGKEYKCKVSNKALPAPIEKTISKAKGQPREPQVYTLPPSRDELGGCRAGYGDASCGGTKNQVSLTCLVKGFYPSDIAVEWESNGQPENNYKTTPPVLDSDGSFFLYSKLTVDKSRWQQGNVFSCSVMHEALHNHYTQKSLSLSPGK
Regarding B1, the ELISA score in assay [1] is 79.5; in assay [2], 0.7.

B2: L6A isolate with insertion SEQ ID NO: 465 (other)
chain: B1 chain with R147F, A148T, G149N, G151A, D152S, A153E, S154K
Take B2: the ELISA score in assay [1] worked out at 45.2; in assay [2] it was 0.3.

B3: L6A isolate with insertion SEQ ID NO: 458 (other)
chain: B1 chain with R147N, A148P, G149V, Y150S, G151T, D152G, S154Y
With B3, the figures for the ELISA score in assay [1] and in assay [2] were 48.5 and 0.2, respectively.

B4: L5 isolate with insertion SEQ ID NO: 456 (other)
chain: EPKSCDKTHTCPPCPAPELLGGPSVFLFPPKPKDTLMISRTPEVTCVVVDVSHEDPEVKFNWYVDGVEVHNAKTKPREEQYNSTYRVVSVLTVLHQDWLNGKEYKCKVSNKALPAPIEKTISKAKGQPREPQVYTLPPSRDELTKNQVSLTCLVKGFYPSDIAVEWESNGGCYPQKEICGGGQPENNYKTTPPVLDSDGSFFLYSKLTVDKSRWQQGNVFSCSVMHEALHNHYTQKSLSLSPGK
As to B4, the ELISA score was found to be 49.8 in assay [1] and 0.6 in assay [2].

B5: L5 isolate with insertion SEQ ID NO: 461 (other)
chain: B4 chain with Y173K, P174W, Q175S, K176M, E177T, I178K
For the molecule B5, the ELISA score in assay [1] was 47.2; in assay [2], 0.9.

B6: L5 isolate with insertion SEQ ID NO: 483 (other)
chain: B4 chain with Y173P, P174Q, Q175H, K176G, I178M
Turning to B6, the ELISA score in assay [1] stood at 28.4; in assay [2], 0.5.

B7: L5 isolate with insertion SEQ ID NO: 484 (other)
chain: B4 chain with P174A, Q175S, K176P, E177H, I178E
With B7, the ELISA score worked out at 27.7 in assay [1] and 1 in assay [2].

B8: L5 isolate with insertion SEQ ID NO: 481 (other)
chain: B4 chain with Y173E, P174Q, K176F, E177V, I178T
Take B8: the ELISA score is 31.1 in assay [1] and 0.8 in assay [2].

B9: L5 isolate with insertion SEQ ID NO: 496 (other)
chain: B4 chain with Y173G, P174G, Q175P, K176Y, E177V, I178F
Consider B9, for which the ELISA score in assay [1] worked out at 21.3; in assay [2], 1.4.

B10: L5 isolate with insertion SEQ ID NO: 487 (other)
chain: B4 chain with Y173G, P174I, Q175F, K176E, E177S, I178W
Take B10: the ELISA score in assay [1] came out at 26.3; in assay [2], 0.7.

B11: L5 isolate with insertion SEQ ID NO: 491 (other)
chain: B4 chain with C172S, Y173Q, P174R, Q175A, K176P, E177A, I178S
Regarding B11, the ELISA score amounted to 24.9 in assay [1] and 1.2 in assay [2].

B12: L5 isolate with insertion SEQ ID NO: 494 (other)
chain: B4 chain with Y173C, Q175V, K176Y, E177Q, I178H
For B12, the figures for the ELISA score in assay [1] and in assay [2] were 21.7 and 0.3, respectively.

B13: L5 isolate with insertion SEQ ID NO: 486 (other)
chain: B4 chain with Y173D, P174T, Q175I, K176G, E177W, I178F
Take B13: the ELISA score in assay [1] was 26.9; in assay [2] it was 1.4.

B14: L5 isolate with insertion SEQ ID NO: 459 (other)
chain: B4 chain with Y173P, P174G, Q175H, K176E, E177F, I178R
As to B14, the ELISA score amounted to 48.2 in assay [1] and 1.8 in assay [2].

B15: L5 isolate with insertion SEQ ID NO: 485 (other)
chain: B4 chain with Y173M, Q175P, K176Q, E177W, I178M
With B15, the ELISA score in assay [1] is 27.5; in assay [2] it was 2.1.

B16: L5 isolate with insertion SEQ ID NO: 479 (other)
chain: B4 chain with Y173M, P174F, Q175S, K176H, E177P, I178H
In the case of B16, the values for the ELISA score in assay [1] and in assay [2] were 35.8 and 0.7, respectively.

B17: L5 isolate with insertion SEQ ID NO: 477 (other)
chain: B4 chain with Y173Q, P174Q, Q175I, I178W
As for B17, the ELISA score in assay [1] was found to be 38.7; in assay [2], 1.6.

B18: L5 isolate with insertion SEQ ID NO: 462 (other)
chain: B4 chain with Y173D, P174W, Q175H, K176R, E177M, I178K
Regarding B18, the ELISA score in assay [1] amounted to 47; in assay [2], 1.4.

B19: L5 isolate with insertion SEQ ID NO: 480 (other)
chain: B4 chain with Y173A, P174G, Q175P, K176Y, E177W, I178A
In the case of B19, the ELISA score in assay [1] worked out at 33.7; in assay [2] it was 0.7.

B20: L5 isolate with insertion SEQ ID NO: 475 (other)
chain: B4 chain with Y173L, P174G, Q175L, K176R, E177Q, I178E
Turning to B20, the ELISA score in assay [1] was found to be 41.1; in assay [2], 1.6.

B21: L5 isolate with insertion SEQ ID NO: 489 (other)
chain: B4 chain with Y173Q, K176A, E177S, I178W
As to B21, the figures for the ELISA score in assay [1] and in assay [2] were 25.2 and 0.7, respectively.

B22: L5 isolate with insertion SEQ ID NO: 488 (other)
chain: B4 chain with Y173G, Q175Y, E177T, I178E
Turning to B22, the ELISA score turned out to be 26.1 in assay [1] and 0.9 in assay [2].

B23: L5 isolate with insertion SEQ ID NO: 470 (other)
chain: B4 chain with Y173E, P174A, Q175S, K176G, E177Q
Take B23: the ELISA score in assay [1] was determined as 42.4; in assay [2], 1.6.

B24: L5 isolate with insertion SEQ ID NO: 495 (other)
chain: B4 chain with Y173L, P174M, Q175S, K176Q, E177D, I178L
For the molecule B24, the values for the ELISA score in assay [1] and in assay [2] were 21.5 and 1, respectively.

B25: L5 isolate with insertion SEQ ID NO: 492 (other)
chain: B4 chain with Y173M, P174M, Q175R, K176E, E177Q, I178G
B25: the ELISA score in assay [1] was 23.9; in assay [2], 1.5.

B26: L5 isolate with insertion SEQ ID NO: 478 (other)
chain: B4 chain with Y173D, P174L, Q175P, K176N, I178M
Take B26: the ELISA score was determined as 36.1 in assay [1] and 1 in assay [2].

B27: L5 isolate with insertion SEQ ID NO: 464 (other)
chain: B4 chain with Y173M, P174M, Q175W, E177V, I178N
For the molecule B27, the ELISA score in assay [1] was 46.2; in assay [2], 0.9.

B28: variant Fc-fragment Fc-5-66 (other)
chain: B4 chain with Y173E, P174R, Q175F, K176H, E177H, I178A
notes: soluble elsewhere
Turning to B28, the results for the ELISA score in assay [1] and in assay [2] were 51.2 and 0.5, respectively.

B29: L5 isolate with insertion SEQ ID NO: 482 (other)
chain: B4 chain with Y173M, P174G, Q175W, K176W, E177H, I178L
For B29, the ELISA score came to 29.5 in assay [1] and 1.2 in assay [2].

B30: L5 isolate with insertion SEQ ID NO: 463 (other)
chain: B4 chain with Y173M, P174H, Q175S, K176P, E177H, I178A
In the case of B30, the ELISA score was determined as 46.8 in assay [1] and 3.6 in assay [2].

B31: L5 isolate with insertion SEQ ID NO: 493 (other)
chain: B4 chain with Y173L, P174L, Q175P, K176N, E177M, I178F
As to B31, the ELISA score worked out at 22 in assay [1] and 1 in assay [2].
